The source of these data is publication PMC509406.

The target of assay [1] is rabbit actin (Cytoskeleton, catalog #AKL95) (rabbit) (UniProt P68135).
For the next assay, the target named is emerin (Homo sapiens) (UniProt P50402). To be noted: cited from earlier work.
The target in assay [2] is rabbit actin (Cytoskeleton, catalog #AKL95) (rabbit) (UniProt P68135). This is another data set of the same source.
The target of assay [3] is F-actin (Oryctolagus cuniculus) (UniProt P68135). The settings on record: cited from earlier work.

Chain of tropomodulin (P28289 whole entry): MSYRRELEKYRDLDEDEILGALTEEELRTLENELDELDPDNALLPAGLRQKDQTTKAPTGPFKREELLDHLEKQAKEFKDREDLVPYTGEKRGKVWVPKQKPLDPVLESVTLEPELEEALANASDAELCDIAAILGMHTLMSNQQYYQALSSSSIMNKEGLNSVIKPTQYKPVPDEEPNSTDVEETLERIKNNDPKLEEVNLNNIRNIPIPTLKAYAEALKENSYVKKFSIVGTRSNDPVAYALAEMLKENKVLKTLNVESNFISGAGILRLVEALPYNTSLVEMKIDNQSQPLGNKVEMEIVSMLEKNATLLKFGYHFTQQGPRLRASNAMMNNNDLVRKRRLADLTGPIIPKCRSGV
Chain of emerin (Homo sapiens) (P50402 whole entry): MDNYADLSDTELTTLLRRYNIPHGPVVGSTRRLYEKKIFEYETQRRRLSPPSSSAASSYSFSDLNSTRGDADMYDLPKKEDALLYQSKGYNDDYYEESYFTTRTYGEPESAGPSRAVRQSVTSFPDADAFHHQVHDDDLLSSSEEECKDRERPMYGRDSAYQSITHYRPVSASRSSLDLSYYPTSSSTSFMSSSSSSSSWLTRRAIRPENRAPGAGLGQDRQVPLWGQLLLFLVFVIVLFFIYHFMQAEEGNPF
Chain of LAP2β (P42167 whole entry): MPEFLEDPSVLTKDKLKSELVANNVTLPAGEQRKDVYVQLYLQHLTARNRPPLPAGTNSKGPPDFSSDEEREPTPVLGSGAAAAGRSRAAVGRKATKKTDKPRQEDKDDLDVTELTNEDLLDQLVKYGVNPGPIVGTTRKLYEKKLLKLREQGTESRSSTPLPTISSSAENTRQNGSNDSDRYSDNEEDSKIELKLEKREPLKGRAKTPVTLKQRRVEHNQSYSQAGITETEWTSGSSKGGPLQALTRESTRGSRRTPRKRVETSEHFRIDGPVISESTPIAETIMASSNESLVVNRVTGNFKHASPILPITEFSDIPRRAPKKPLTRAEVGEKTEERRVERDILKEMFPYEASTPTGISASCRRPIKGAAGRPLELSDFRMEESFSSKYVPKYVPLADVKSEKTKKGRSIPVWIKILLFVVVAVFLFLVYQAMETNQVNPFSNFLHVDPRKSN

Consider “LAP2β (from UniProt P42167 1-454) (natural protein)”, for which the actin polymerization assays (data not shown), activity against emerin (fold less active than emerin) in assay [1] is 20. Take nesprin-1α (from UniProt Q8NF91): in the assay with emerin (Homo sapiens), the dissociation constant Kd was 4 nM.

In assay [2], “tropomodulin (from UniProt P28289 1-359) (natural protein)” displayed a length of green (pointed-end growth) segments on rhodamine–phalloidin filaments capped with capping protein, 1 μM tropomodulin of 0.09 μm and a length of growing (green) segments on filaments formed from gelsolin–actin seeds, 1 μM tropomodulin of 0.1 μm. With tropomodulin (from UniProt P28289), the equilibrium dissociation constant (Kd) in assay [3] is 110 nM.

A word on the Kd: it is the concentration at which binding is half-saturated.
